Assay results as given in patent US20070026008A1.

Molecular target: mouse B6 class I antigens (mouse)
Test: RMA-S cell MHC stabilisation, peptide 25 ug/ml, flow cytometry with FITC anti-D^b or anti-K^b; % increase of MFI over medium alone

Binding Affinity to Mouse MHC Class I [%] | Binder
1 | NQMNLGATL [WT1 peptide p239-247 (…)]
52 | SCLESQPAI [WT1 peptide human p136-144 (…)]
1.2 | GCNKRYFKL [WT1 peptide p329-337 (…)]
0.8 | YSSDNLYQM [WT1 peptide p221-229 (…)]
33.6 | CMTWNQMNL [WT1 peptide p235-243 (…)]
5.8 | NLYQMTSQL [WT1 peptide p225-233 (…)]
1.2 | QMTSQLECM [WT1 peptide p228-236 (…)]
2.2 | ALLPAVPSL [WT1 peptide human p10-18 (…)]

Molecular target: mouse B6 class I antigens (mouse)
Test: Binding of 9-mer peptides within p117-139 to mouse B6 (H-2^b) class I; RMA-S cell MHC stabilisation, flow cytometry

Binder | Binding Affinity to Mouse MHC Class I [%]
QASSGQARM [WT1 peptide P119-127 (…)] | 2
ARMFPNAPY [WT1 peptide P125-133 (…)] | 1
SSGQARMFP [WT1 peptide P121-129 (…)] | 1
PNAPYLPSC [WT1 peptide P129-137 (…)] | 1
QARMFPNAP [WT1 peptide P124-132 (…)] | 1
PSQASSGQA [WT1 peptide P117-125 (…)] | 2
MFPNAPYLP [WT1 peptide P127-135 (…)] | 2
FPNAPYLPS [WT1 peptide P128-136 (…)] | 1
ASSGQARMF [WT1 peptide P120-128 (…)] | 1
SQASSGQAR [WT1 peptide P118-126 (…)] | 2

Next, values leading:

Binding Affinity to Mouse MHC Class I [%] | Binder
1 | APYLPSCLE [WT1 peptide P131-139 (…)]
79 | NAPYLPSCL [WT1 peptide P130-138 (…)]
